The source of these data is patent publication US20230295559A1 (PIVOT BIO, published 2023).

The experiment addresses T1, glutamine synthetase GlnA (Paenibacillus polymyxa CI41).
T1 chain: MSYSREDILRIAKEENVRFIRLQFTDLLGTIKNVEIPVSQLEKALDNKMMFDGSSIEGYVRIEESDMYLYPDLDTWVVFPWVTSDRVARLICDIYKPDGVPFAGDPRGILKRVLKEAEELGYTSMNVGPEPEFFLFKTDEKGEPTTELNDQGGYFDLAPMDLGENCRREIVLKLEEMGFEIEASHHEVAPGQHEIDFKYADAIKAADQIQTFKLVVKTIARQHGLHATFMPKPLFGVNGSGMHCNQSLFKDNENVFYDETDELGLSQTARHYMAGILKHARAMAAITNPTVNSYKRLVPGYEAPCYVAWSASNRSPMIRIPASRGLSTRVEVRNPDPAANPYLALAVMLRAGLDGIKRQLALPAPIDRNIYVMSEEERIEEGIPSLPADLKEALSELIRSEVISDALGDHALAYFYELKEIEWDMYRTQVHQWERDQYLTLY
Briefly: cell-based or functional assay.

B1: GlnR with C-terminal deletion (Δ113-137) (other)
chain: MGDEIRRNMALFPIGIVMKLTDLSARQIRYYEQHNLIVPARTSGNQRLFSFNDVERLLEIKALIEKGVNIAGIKQVMNPVTKESEEATVITADTEVKRREMSDTQLHRLLKQ
Take B1: the “overall nitrogenase activity (acetylene reduction assay)” value was determined as 5 fold.
